Measured values published in PMC11811199 (EMBO Reports, 2024).

Molecular target: T1, DYRK4-His (UniProt Q9NR20 1-520)
T1 construct: also called recombinant DYRK4; pET30a-DYRK4-his; not shown: His, C-terminal, kept
T1 sequence (looked up): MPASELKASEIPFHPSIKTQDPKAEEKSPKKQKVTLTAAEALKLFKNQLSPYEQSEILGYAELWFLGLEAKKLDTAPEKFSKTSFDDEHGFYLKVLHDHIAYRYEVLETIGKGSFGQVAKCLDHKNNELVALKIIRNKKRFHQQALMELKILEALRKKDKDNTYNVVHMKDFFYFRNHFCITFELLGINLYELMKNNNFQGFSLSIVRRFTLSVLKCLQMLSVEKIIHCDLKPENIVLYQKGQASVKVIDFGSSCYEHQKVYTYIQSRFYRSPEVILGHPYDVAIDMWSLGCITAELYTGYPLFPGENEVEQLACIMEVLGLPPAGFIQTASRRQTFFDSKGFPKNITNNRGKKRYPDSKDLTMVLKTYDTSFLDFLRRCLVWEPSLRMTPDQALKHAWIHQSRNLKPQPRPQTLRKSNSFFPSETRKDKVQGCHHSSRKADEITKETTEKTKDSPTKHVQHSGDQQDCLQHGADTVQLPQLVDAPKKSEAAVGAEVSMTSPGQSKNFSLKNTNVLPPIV
Assay: pull-down
Settings: both partners purified

B1: GST-IRF3 (natural protein, UniProt Q14653 1-427, looked up)
chain: MGTPKPRILPWLVSQLDLGQLEGVAWVNKSRTRFRIPWKHGLRQDAQQEDFGIFQAWAEATGAYVPGRDKPDLPTWKRNFRSALNRKEGLRLAEDRSKDPHDPHKIYEFVNSGVGDFSQPDTSPDTNGGGSTSDTQEDILDELLGNMVLAPLPDPGPPSLAVAPEPCPQPLRSPSLDNPTPFPNLGPSENPLKRLLVPGEEWEFEVTAFYRGRQVFQQTISCPEGLRLVGSEVGDRTLPGWPVTLPDPGMSLTDRGVMSYVRHVLSCLGGGLALWRAGQWLWAQRLGHCHTYWAVSEELLPNSGHGPDGEVPKDKEGGVFDLGPFIVDLITFTEGSGRSPRYALWFCVGESWPQDQPWTKRLVMVKVVPTCLRALVEMARVGGASSLENTVDLHISNSHPLSLTSDQYKAYLQDLVEGMDFQGPGES
notes: also called pGEX6P-1-GST-IRF3; not shown: GST, N-terminal, kept
binding result: binds
